From US8962263B2, “Methods and compositions for detecting the activation state of multiple proteins in single cells” (The Board of Trustees of the Leland Stanford Junior …, priority 2001, dated 2015)
Like-named read-outs stand apart in the source and are kept apart here.

B1: ICAM-2: biochemically purified soluble human ICAM-2 protein from retrovirally transduced NIH3T3 cells; ICAM-2-FC fusion also used (protein, UniProt P13598 25-223, looked up)
extracellular domain: KVFEVHVRPKKLAVEPKGSLEVNCSTTCNQPEVGGLETSLDKILLDEQAQWKHYLVSNISHDTVLQCHFTCSGKQESMNSNVSVYQPPRQVILTLQPTLVAVGKSFTIECRVPTVEPLDSLTLFLFRGNETLHYETFGKAAPAPQEATATFNSTADREDGHRNFSCLAVLDLMSRGGNIFHKHSAPKMLEIYEPVSDSQ
modifications: extracellular domain
notes: biochemically purified soluble human ICAM-2 protein from retrovirally transduced NIH3T3 cells; ICAM-2-FC fusion also used

Columns and labels:
[1] = tested on: NIH3T3; assay: staurosporine induced apoptosis in ICAM-2 transduced NIH3T3 (annexin-V binding, BrdU TUNEL); format: cell-based, murine
In short: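 ICAM-2, ICAM2-ΔC or vector-transduced NIH3T3 cells treated with 1 μM staurosporine, with or without 10 μM LY294002, 24 h; DMSO vehicle control. Apoptosis by flow cytometry: annexin-V-FITC/PI at 12 h, BrdU TUNEL at 24 h; percent apoptotic cells, mean ± SD of triplicate cultures.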

[2] = tested on: p44/42 MAPK; assay: phospho-p44/42 MAPK immunoblot and p44/42 MAPK kinase assay in soluble ICAM-2 treated Jurkat cells; format: cell-based, human
[3] = tested on: human naïve T-cells; assay: T cell activation by CD25 and CD69 markers in human naïve T cells; format: cell-based; conditions: combined with CD3/CD28 stimulation
Experimental: A) Intracellular detection of IL-2, of titration of CD3/CD28, vs. LFA-1, stimulus or CD3, vs. CD28, stimulus for 6, hours. Median Fluorescent intensity is plotted as a visual array. B) Bivariate analysis of CD69, and CD25 expression in unstimulated, CD3/CD28/LFA-1, (0.001, μg/ml, 1:1:1) stimulated, and CD3/CD28, (10 μg/ml) stimulated CD4, T cells. C) Bivariate plot of CD69, expression and intracellular detection of IL-2, post 12, hour stimulation of unstimulated, CD3/CD28, and CD3/CD28/LFA-1, stimulation.
Intracellular and extracellular staining was performed as described for phospho-staining (Perez and Nolan, 2002). […] Four or less color flow cytometry data acquisition was collected on a FACSCalibur machine (Beckton Dickinson, San Jose Calif.) using CELLQuest software, analyzed and presented using FlowJo software (Tree Star, San Carlos, California). […] Data were collected by FACS-Desk software and compensated, analyzed, and presented using FlowJo software. […] Ratios of intracellular flow cytometric measurements were calculated from the following equation where MFI equals mean fluorescent intensity: Log [(MFIexperimental−MFIisotype mAb)/(MFIcontrol−MFlisotype mAb)].

Row | Molecule | ICAM-2 induced survival signal ([1]; PKC isozyme inhibitors, system not specified) | effect on ICAM-2 anti-apoptotic effect, other kinase inhibitors ([1]; cell type not stated, data not shown) | p44/42 MAPK phosphorylation and activity on ICAM-2 treatment [2] | p44/42 MAPK phosphorylation and activity on ICAM-2 treatment ([2]; listed as soluble ICAM-2) | lowering of the CD3/CD28 stimulus threshold [3]
1 | CN(C)CCCn1cc(C2=C(c3c[nH]c4ccccc34)C(=O)NC2=O)c2ccccc21 [bisindolymaleimide I] | did not abrogate | not abrogated |  |  | 
2 | B1 |  |  | induced both p44/42 MAPK phosphorylation and activation | induced p44/42, MAPK phosphorylation and activity | 10,000 fold
